For data set [1], the target named is MBP:HA-HC-Pro fusion protein (ZYMV HC-Pro fused to the C-terminus of maltose binding protein, HA-tag between … (zucchini yellow mosaic virus (ZYMV), UniProt P0AEX9 27-396 = MBP)). The data set can be described thus: cell-based or functional assay.
Data set [2] concerns the molecule itself. The data set can be described thus: Western blot / Coomassie gel after Ni-NTA purification (self-association).

B1: Trx-cupin-protein-His-protein (A. thaliana cupin protein expressed from pET32a(+)) (other)
chain: MGCIGVVNVTSINPYLTRRSNKPYNSRRPSSMAAAIRAESTEKLGITIEKNPPESKLTQLGVRSWPKWGCPPSKFPWTYSAKETCYLLQGKVKVYPNGSDEGVEIEAGDFVVFPKGMSCTWDVSVAVDKHYQFE
notes: Expressed in BL21 (DE3) codon plus, purified by the His-tag; 34 kDa monomer; also called Tm-cupin-protein-His-protein; Trx-QP-His-protein; not shown: N-terminal pET32a(+) tags: thioredoxin (Trx-tag), 6 X His-tag, S-Tag, enterokinase site; C-terminal 6 X His-tag from pET32a(+)
With B1, the “gelshift (EMSA): binding of 21 bp siRNA-double strands by MBP-HA-HC-Pro, signal intensities (Quantity One)” value in data set [1] amounted to 3 fold. Further, the binding result in data set [2] is reported as “binds”.
